Measured values taken from paper PMC6647829, “Copper–zinc superoxide dismutase (Sod1) activation terminates interaction between its copper chaperone (Ccs) and the cytosolic metal-binding domain of the copper importer Ctr1” (Biometals, 2019).

How the values were obtained:
Settings in all cases: both partners purified
[1] = biological target: T1, Pre-made Cu(I)-Ctr1c·Ccs complex (human, UniProt O14618 1-274); assay: other fluorescence titration; HI-FI method, fluorescence quenching; 10 nM Alexa-546 Sod1 probe, completely immature (metal-free); Ccs titrated in increasing concentrations; fit in GraphPad Prism
T1 construct: Human wild-type Ccs1, UniProtKB O14618; as m2; C-terminal 13 amino acids of the human Ctr1 Cu(I)-transporter (Ctr1c), UniProtKB O15431; Held together through Cu(I); also called Cu(I)-Ctr1c complexed Ccs; Cu(I)-Ctr1c488·Ccs; source: formed from purified E. coli Ccs and the Cu(I)-loaded synthetic peptide; not shown: His8, N-terminal, cleaved

[2] = biological target: T2, Human wild-type copper chaperone for Sod1 (Ccs), His8-tag removed (human, UniProt O14618 1-274); assay: as above
T2 construct: Human wild-type Ccs1, UniProtKB O14618, cloned into pAG8H; Stripped of metals (apo) or Cu(I)-loaded as the experiment says; the methods tell its removal in general; also called Ccs1; WT Ccs; not shown: His8, N-terminal, cleaved
T2 sequence (looked up): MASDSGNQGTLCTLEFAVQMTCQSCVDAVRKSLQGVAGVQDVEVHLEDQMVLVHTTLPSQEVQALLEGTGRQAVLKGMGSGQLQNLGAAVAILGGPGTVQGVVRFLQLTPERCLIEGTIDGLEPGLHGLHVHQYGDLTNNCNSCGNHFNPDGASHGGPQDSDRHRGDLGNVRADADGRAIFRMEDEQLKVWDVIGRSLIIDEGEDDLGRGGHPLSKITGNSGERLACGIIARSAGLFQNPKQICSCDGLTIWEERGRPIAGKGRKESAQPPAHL

[3] = biological target: T2, Human wild-type copper chaperone for …; assay: other fluorescence titration; HI-FI method, fluorescence quenching; 10 nM Alexa-546 Sod1 probe, Zn-bound; apo-Ccs titrated in increasing concentrations; fit in GraphPad Prism

Kd [1]: 120 ± 27 nM
Kd [2]: 89 ± 11 nM
Kd [3]: 22 ± 6 nM
B1: H46R/H48Q/C146S Sod1 labelled with Alexa-546-C-maleimide (Sod1 probe) (enzyme)
chain: not shown
modifications: Alexa-546-C-maleimide label (residue not stated)
notes: Human Sod1, UniProtKB P00441, H46R/H48Q/C146S; the two states are told apart by the assay; also called completely immature Sod1; source: gel filtration after labelling
